Source: patent US20250277030A1 (Zymeworks, published 2025)
Blank lines part the entries; values can stand above or below the binder they belong to.

Legend:
[1] = molecular target: T1, human sodium-dependent phosphate transporter 2B (NaPi2b) (human, UniProt O95436 1-690); experiment: flow cytometry, IGROV-1 cells (endogenous NaPi2b), 24 h at 4 °C; apparent Kd
T1 construct: UniProt ID is given as 095436 [sic]; also called hNaPi2b; Hu NaPi2b
T1 sequence: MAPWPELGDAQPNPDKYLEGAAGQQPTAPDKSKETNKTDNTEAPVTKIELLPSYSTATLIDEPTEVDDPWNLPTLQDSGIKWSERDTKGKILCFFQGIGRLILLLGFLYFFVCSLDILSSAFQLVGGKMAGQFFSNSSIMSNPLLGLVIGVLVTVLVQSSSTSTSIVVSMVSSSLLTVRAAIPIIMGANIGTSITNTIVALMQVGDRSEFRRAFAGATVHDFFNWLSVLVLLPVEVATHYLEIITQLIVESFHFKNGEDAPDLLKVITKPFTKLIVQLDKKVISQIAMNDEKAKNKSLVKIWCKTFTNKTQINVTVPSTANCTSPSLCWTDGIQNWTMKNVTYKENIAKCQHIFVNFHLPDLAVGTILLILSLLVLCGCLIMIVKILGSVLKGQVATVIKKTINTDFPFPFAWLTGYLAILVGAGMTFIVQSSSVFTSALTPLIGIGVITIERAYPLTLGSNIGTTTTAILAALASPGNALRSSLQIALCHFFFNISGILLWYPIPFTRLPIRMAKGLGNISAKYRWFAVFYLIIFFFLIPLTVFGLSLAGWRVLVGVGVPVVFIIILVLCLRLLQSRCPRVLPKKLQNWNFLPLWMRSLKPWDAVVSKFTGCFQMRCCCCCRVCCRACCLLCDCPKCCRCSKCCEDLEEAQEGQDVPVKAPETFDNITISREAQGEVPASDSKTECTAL
Method: (§1) IGROV-1 cells express endogenous NaPi2b at a high level.
(§2) Briefly, cells were seeded at 50,000 cells/well in conical-bottom 96-well plates and treated with test antibody for 24 hours at 4° C. to prevent internalization. […] Following incubation, cells were washed and stained with anti-Human IgG Fc AF647 conjugate (Jackson Immuno Research Labs, West Grove, PA; Cat. No. 109-605-098) at 4° C. for 30 min. Following incubation and washing, fluorescence was detected by flow cytometry on a BD LSRFortessa™ Cell Analyzer (BD Biosciences, Franklin Lake, NJ) with 1,000 minimum events collected per well. The AF647/APC-A GeoMean (fluorescence signal geometric mean, proportional to anti-Human AF647 binding) was calculated for the live cell population using FlowJo™ Version 10.8.1 (BD Biosciences, Franklin Lake, NJ) and plotted for each test antibody using GraphPad Prism Version 9 (GraphPad Software, San Diego, CA).

[2] = molecular target: T1, human sodium-dependent phosphate …; experiment: flow cytometry, IGROV-1 cells (endogenous NaPi2b), 24 h at 4 °C
Method: as §1, §2

[3] = molecular target: T1, human sodium-dependent phosphate …; experiment: flow cytometry on IGROV-1 cells (endogenous NaPi2b), 24 h at 4 C, anti-human IgG Fc AF647 detection
Method: as §1, §2

[4] = molecular target: T1, human sodium-dependent phosphate …; experiment: cell-based or functional assay
[5] = molecular target: T1, human sodium-dependent phosphate …; experiment: KinExA, IGROV-1 cells (endogenous NaPi2b) as titrant, monovalent antibody constant at 50 and 500 pM, N-curve analysis
Method: (§3) The cell-binding assay was set up using the antibody constructs or variants as constant binding partner at two different concentrations of 50 pM and 500 pM. For the titration curve with antibody variants fixed at 50 pM, at least 10 million IGROV-1 cells were used as titrant. For the titration curve with antibody variants fixed at 500 pM, at least 5 million cells were used as titrant. The antibody variants and cells were mixed in PBS pH 7.4, 1 mg/mL BSA, 0.2% NaN₃ and incubated at 4° C. for 7 days with gentle rotation until equilibrium was reached. After incubation, the mixture of antibody variants and cells was centrifuged to separate the cells from the unbound free antibody variants. The free antibody variants were loaded onto the KinExA 3200 (Sapidyne, Boise, Idaho) with biotinylated—anti-human IgG PMMA as solid phase and 0.5 μg/mL of Alexa 647 goat anti-human IgG (Jackson ImmunoResearch, West Grove, PA) as detection antibody.
(§4) N-curve analysis was used to calculate the affinity and receptor expression level with the concentrations of antibody variant as reference point.

[6] = molecular target: T1, human sodium-dependent phosphate …; experiment: flow cytometry, HCC-78 cells (endogenous NaPi2b)
Method: (§5) Briefly, HEK293-6e cells were transfected for ˜24 hours to transiently express human NaPi2b, cynomolgus or mouse NaPi2b, at 1 μg of DNA per 1 million cells. Following transfection, 50,000 cells per well were seeded in V-bottom 96-well plates and incubated with 200 nM of primary antibody for 18-24 hours at 4° C. to prevent internalization. Post-incubation, cells were washed and stained with anti-Human IgG Fc AF647 conjugate (Jackson Immuno Research Labs, West Grove, PA, Cat. No. 109-605-098, Lot. No. 124868) at 4° C. for 1 hour. Following staining and washing, fluorescence was detected by flow cytometry on BD LSRFortessa™ Cell Analyzer (BD Biosciences, Franklin Lake, NJ) with 10,000 minimum events collected per well. The AF647/APC-A GeoMean (fluorescence signal geometric mean, proportional to anti-Human AF647 binding) was calculated for the live singlet cell population for each primary antibody using FlowJo™ v8 software (BD Biosciences, Franklin Lake, NJ). The Bmax and Kd of each primary antibody were calculated using GraphPad Prism Version 9 (GraphPad Software, San Diego, CA)
(§6) The ability of ADCs to bind to cells expressing NaPi2b was assessed. […] Binding to endogenous high NaPi2b-expressing cell lines IGROV-1 and HCC-78 was assessed by flow cytometry according to methods described in Example 5.

[7] = molecular target: T1, human sodium-dependent phosphate …; experiment: flow cytometry, HCC-78 cells (endogenous NaPi2b); apparent Kd
Method: as §5, §6

[8] = molecular target: T1, human sodium-dependent phosphate …; experiment: flow cytometry, IGROV-1 cells (endogenous NaPi2b)
Method: as §5, §6

[9] = molecular target: T1, human sodium-dependent phosphate …; experiment: flow cytometry, IGROV-1 cells (endogenous NaPi2b); apparent Kd
Method: as §5, §6

[10] = molecular target: T1, human sodium-dependent phosphate …; experiment: flow cytometry on IGROV-1 cells (endogenous NaPi2b), 4 C, anti-human IgG Fc AF647 detection
Method: as §5, §6

[11] = molecular target: T1, human sodium-dependent phosphate …; experiment: flow cytometry on HCC-78 cells (endogenous NaPi2b), 4 C, anti-human IgG Fc AF647 detection
Method: as §5, §6

[12] = molecular target: T1, human sodium-dependent phosphate …; experiment: KinExA, IGROV-1 cells, monovalent format
Method: The binding affinity of anti-NaPi2b antibody constructs was assessed by Kinexa in the endogenous NaPi2b-expressing cell line, IGROV-1.
as §3, §4

B1: v18992-DL2, MX35 conjugated to MT-VC-Compound 1 (DAR 3) (antibody, human IgG1, kappa)
heavy 1: GQVQLVQSGAEVVKPGASVKMSCKASGYTFTGYNIHWVKQAPGQGLEWIGAIYPGNGDTSYKQKFRGRATLTADTSTSTVYMELSSLRSEDSAVYYCARGETARATFAYWGQGTLVTVSSASTKGPSVFPLAPSSKSTSGGTAALGCLVKDYFPEPVTVSWNSGALTSGVHTFPAVLQSSGLYSLSSVVTVPSSSLGTQTYICNVNHKPSNTKVDKKVEPKSCDKTHTCPPCPAPELLGGPSVFLFPPKPKDTLMISRTPEVTCVVVDVSHEDPEVKFNWYVDGVEVHNAKTKPREEQYNSTYRVVSVLTVLHQDWLNGKEYKCKVSNKALPAPIEKTISKAKGQPREPQVYVYPPSRDELTKNQVSLTCLVKGFYPSDIAVEWESNGQPENNYKTTPPVLDSDGSFALVSKLTVDKSRWQQGNVFSCSVMHEALHNHYTQKSLSLSPG
heavy 2: not shown
light: GDIQMTQSPSSLSASVGDRVTITCSASQDIGNFLNWYQQKPGKTVKVLIYYTSSLYSGVPSRFSGSGSGTDYTLTISSLQPEDFATYYCQQYSKLPLTFGQGTKLELKRTVAAPSVFIFPPSDEQLKSGTASVVCLLNNFYPREAKVQWKVDNALQSGNSQESVTEQDSKDSTYSLSSTLTLSKADYEKHKVYACEVTHQGLSSPVTKSFNRGEC
modifications: MT-VC-Compound 1 (DL2) on cysteines freed by reduction; positions not given; MT-VC-Compound 1 (DL2) on cysteines freed by reduction; positions not given; DAR 3 for the whole antibody
notes: also called MX35 Compound 1 ADC; MX35-DL2 ADC
Kd [1]: 1.22 nM
Bmax (MFI) [2]: 41200 MFI
EC50 (read off the curve) [3]: ~1 nM
In vitro cytotoxicity EC50 (nM), HCC-78 [4]: 0.13 nM
In vitro cytotoxicity EC50 (nM), IGROV-1 [4]: 0.11 nM
In vitro cytotoxicity EC50 (nM), OVCAR-3 [4]: 0.02 nM

B2: v23855, parental mouse-human chimeric anti-NaPi2b IgG1/kappa antibody (antibody, V domains shown)
VH: QAYLQQSGAELVRPGASVKMSCKASGFTFTSYNVHWVKQTPRQGLEWIAAISPGNGDLSYNQRFKDKATLTVDRSSSTAYMQLSGLTSEDSAVYFCARGRTGMGAVDYWGQGTSVTVSS
VL: DVQMTQTASSLSASLGDRVTISCRASQDVYSYLNWYQQKPHGTVKLLIYYTSRLQSGVPSRFTGSGSGTDYSLTISNLEPEDIATYYCQQYNIFPWTFGGGTKLEIKR
notes: Full-size antibody: mouse VH/VL appended to human IGHG1*01 CH1-hinge-CH2-CH3 (ends at G446) and IGKC*01; also called parental chimeric
Kd [1]: 0.84 nM
Bmax (MFI) [2]: 43700 MFI
EC50 (read off the curve) [3]: ~0.8 nM

B4: v29456-DL1, v29456 conjugated to MC-GGFG-AM-DXd1 (DAR 8) (antibody, human IgG1, kappa)
heavy: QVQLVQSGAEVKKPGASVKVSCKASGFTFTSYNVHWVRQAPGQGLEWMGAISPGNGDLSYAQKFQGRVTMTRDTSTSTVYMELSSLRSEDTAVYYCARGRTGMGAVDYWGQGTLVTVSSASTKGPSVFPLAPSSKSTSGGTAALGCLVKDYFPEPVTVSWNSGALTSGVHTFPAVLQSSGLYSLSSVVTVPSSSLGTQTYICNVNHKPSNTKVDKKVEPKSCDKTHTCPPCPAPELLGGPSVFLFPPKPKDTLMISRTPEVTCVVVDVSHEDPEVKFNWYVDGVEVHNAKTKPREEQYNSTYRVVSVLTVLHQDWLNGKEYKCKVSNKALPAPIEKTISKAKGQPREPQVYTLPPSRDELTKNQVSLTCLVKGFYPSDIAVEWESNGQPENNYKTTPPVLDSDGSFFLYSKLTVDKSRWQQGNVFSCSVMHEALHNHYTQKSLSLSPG
light: DVQMTQSPSSLSASVGDRVTITCRASQDVYSYLNWYQQKPGKAVKLLIYYTSRLQSGVPSRFSGSGSGTDYTLTISSLQPEDFATYYCQQYNIFPWTFGQGTKLEIKRTVAAPSVFIFPPSDEQLKSGTASVVCLLNNFYPREAKVQWKVDNALQSGNSQESVTEQDSKDSTYSLSSTLTLSKADYEKHKVYACEVTHQGLSSPVTKSFNRGEC
modifications: MC-GGFG-AM-DXd1 (DL1) on cysteines freed by reduction; positions not given; MC-GGFG-AM-DXd1 (DL1) on cysteines freed by reduction; positions not given; DAR 8 for the whole antibody
notes: also called v29456-MC-GGFG-AM-DXd1
Bmax [6]: 21800
Kd [7]: 2.27 nM
Bmax (MFI) [8]: 77000 MFI
Kd [9]: 0.67 nM
EC50 (read off the curve) [10]: ~0.7 nM
In vitro cytotoxicity EC50 (nM), HCC-78 [4]: 0.51 nM
In vitro cytotoxicity EC50 (nM), IGROV-1 [4]: 1.14 nM

B6: v36123, monovalent format of humanized antibody variant 29452 (antibody, V domains shown)
VH: QVQLVQSGAEVKKPGASVKVSCKASGFTFTSYNVHWVRQAPGQGLEWMGAISPGNGDLSYAQKFQGRVTMTRDTSTSTVYMELSSLRSEDTAVYYCARGRTGMGAVDYWGQGTLVTVSS
VL: DVQMTQSPSSLSASVGDRVTITCRASQDVYSYLNWYQQKPGKAVKLLIYYTSRLQSGVPSRFSGSGSGTDYTLTISSLQPEDIATYYCQQYNIFPWTFGQGTKLEIK
notes: Only said to be the monovalent format of v29452; also called v36123 (VH1/VL3)
fold lower binding affinity than chimeric parental antibody construct (v29814) [12]: ~2 fold
Kd [5]: 0.297 nM

More lines, main results first:

Kd [5]: 0.15 nM
B3: v29814, monovalent format of parental chimeric variant 23855 (antibody, V domains shown)
VH: QAYLQQSGAELVRPGASVKMSCKASGFTFTSYNVHWVKQTPRQGLEWIAAISPGNGDLSYNQRFKDKATLTVDRSSSTAYMQLSGLTSEDSAVYFCARGRTGMGAVDYWGQGTSVTVSS
VL: DVQMTQTASSLSASLGDRVTISCRASQDVYSYLNWYQQKPHGTVKLLIYYTSRLQSGVPSRFTGSGSGTDYSLTISNLEPEDIATYYCQQYNIFPWTFGGGTKLEIK
notes: Only said to be the monovalent format of v23855; it is captured and detected with anti-human IgG; also called v29814 (parental chimeric)

Bmax [6]: 20400
Kd [7]: 2.32 nM
EC50 (read off the curve) [11]: ~2 nM
Bmax (MFI) [8]: 81400 MFI
Kd [9]: 0.77 nM
B5: v29456-DL2, v29456 conjugated to MT-VC-Compound 1 (DAR 4) (antibody, human IgG1, kappa)
heavy: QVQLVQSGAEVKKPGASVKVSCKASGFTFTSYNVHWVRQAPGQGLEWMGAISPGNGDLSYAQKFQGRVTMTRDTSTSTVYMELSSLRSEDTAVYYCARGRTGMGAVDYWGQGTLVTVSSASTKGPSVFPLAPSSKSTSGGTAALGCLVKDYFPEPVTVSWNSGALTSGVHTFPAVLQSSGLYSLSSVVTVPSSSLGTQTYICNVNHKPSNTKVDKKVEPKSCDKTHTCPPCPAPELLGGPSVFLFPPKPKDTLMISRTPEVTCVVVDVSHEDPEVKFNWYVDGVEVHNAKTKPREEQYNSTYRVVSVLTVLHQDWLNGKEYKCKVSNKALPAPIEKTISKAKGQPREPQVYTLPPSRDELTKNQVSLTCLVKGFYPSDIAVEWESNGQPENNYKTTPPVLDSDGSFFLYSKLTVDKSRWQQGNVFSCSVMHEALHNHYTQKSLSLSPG
light: DVQMTQSPSSLSASVGDRVTITCRASQDVYSYLNWYQQKPGKAVKLLIYYTSRLQSGVPSRFSGSGSGTDYTLTISSLQPEDFATYYCQQYNIFPWTFGQGTKLEIKRTVAAPSVFIFPPSDEQLKSGTASVVCLLNNFYPREAKVQWKVDNALQSGNSQESVTEQDSKDSTYSLSSTLTLSKADYEKHKVYACEVTHQGLSSPVTKSFNRGEC
modifications: MT-VC-Compound 1 (DL2) on cysteines freed by reduction; positions not given; MT-VC-Compound 1 (DL2) on cysteines freed by reduction; positions not given; DAR 4 for the whole antibody
notes: also called v29456-MT-VC-Compound 1
In vitro cytotoxicity EC50 (nM), HCC-78 [4]: 0.06 nM
In vitro cytotoxicity EC50 (nM), IGROV-1 [4]: 0.08 nM
In vitro cytotoxicity EC50 (nM), OVCAR-3 [4]: 0.01 nM

fold lower binding affinity than chimeric parental antibody construct (v29814) [12]: ~2 fold
Kd [5]: 0.283 nM
B7: v36124, monovalent format of humanized antibody variant 29456 (antibody, V domains shown)
VH: QVQLVQSGAEVKKPGASVKVSCKASGFTFTSYNVHWVRQAPGQGLEWMGAISPGNGDLSYAQKFQGRVTMTRDTSTSTVYMELSSLRSEDTAVYYCARGRTGMGAVDYWGQGTLVTVSS
VL: DVQMTQSPSSLSASVGDRVTITCRASQDVYSYLNWYQQKPGKAVKLLIYYTSRLQSGVPSRFSGSGSGTDYTLTISSLQPEDFATYYCQQYNIFPWTFGQGTKLEIK
notes: Only said to be the monovalent format of v29456; also called v36124 (VH1/VL2)
